The values below come from article PMC4829898.

What is called stoichiometry N is a count of units in the complex or per binding partner.

For this test, the target named is recombinant soluble tetrameric neuraminidase (tetNA) (Staphylothermus marinus | influenza A virus A/Belgium/2009 (H1N1, 2009 pandemic)). As to the kind of experiment: SEC.

On to “recombinant soluble tetrameric neuraminidase (tetNA) (enzyme)”, for which the stoichiometry N amounted to 4.
